# Experimental data taken from patent US20240377400A1, “METHODS FOR TREATING A SUBTYPE OF COLORECTAL CANCER” (Cornell University, priority 2021, published 2024).
# Experiments:
# MTO-sgC tumors = assay: Subcutaneous MTO-sgC control tumors in syngeneic C57BL/6J mice treated with PEGPH20; type: in vivo, mouse; details: PEGPH20 0.0375 mg/Kg twice a week, 3 weeks
# Procedure: FIGS. 8F-8J illustrate subcutaneous injection of sgPrkci/Prkcz and sgC MTOs in WT mice. Mice were treated twice a week with Veh or PEGPH20 0.0375 mg/kg for 3 weeks (MTOs: sgC n=10, sgC PEGPH20-treated n=10, sgPrkci/Prkcz n=10, and sgPrkci/Prkcz PEGPH20-treated n=8). Experimental design (F); Immunohistochemistry (IHC) for HA, Masson's trichrome, and αSMA (G) staining quantification (H); tumor volume (I) and tumor weight (J). Scale bars, 100 μm.
# For colonoscopy-guided orthotopic injection in the colon submucosa using mouse tumor organoids (MTOs), a 10 μl organoid suspension of equivalent to 40-50 MTOs admixed with 10% Matrigel (Corning) was directly injected into the colonic submucosa of 7 weeks old C57BL/6 mice. 4 weeks after implantation, tumors were collected and analyzed histologically. Orthotopic tumor sizes were measured by caliper after mice were sacrificed. For xenografts using MTOs, a 100 μl cell suspension of equivalent to 0.5×10^6 cells of sgPrkci/Prkcz or sgC MTOs admixed with 30% Matrigel (Corning) was directly injected subcutaneously into the right flank of 7 weeks old C57BL/6 mice. […] Tumors were measured twice a week. Mice were euthanized three weeks after treatment and tumors were analyzed histologically. […]
# [1] = tested on: MTO-sgPrkci/sgPrkcz liver metastases; assay: Liver metastasis model, intrasplenic injection of sgPrkci/Prkcz MTOs; type: in vivo, mouse; details: 5 doses over 2.5 weeks
# Text: CRC predominantly metastasizes to the liver, which is the leading cause of death. Five-year overall survival for metastatic CRC patients is only 14.7%. Furthermore, patients with metastatic liver disease do worse than those without liver disease across different types of cancer and are totally refractory to ICB. Based on data that PEGPH20 remodels the tumor microenvironment and enables ICB in primary MSS CRC, the potential role of targeting HA in liver metastasis was investigated. To directly test therapeutic effects on liver metastatic disease, MTO-sgPrkci/sgPrkcz was inoculated in the portal circulation of wild-type C57BL/6J mice and mice were for two weeks and a half (5 doses) with a low clinically relevant dose of PEGPH20 ([…]) or in combination with anti-PDL1 or/and anti-CTLA4 (FIG. 22A).
# Intrasplenic injection of sgPrkci/Prkcz MTOs in WT mice. Mice were treated twice a week with Veh or PEGPH20 0.0375 mg/kg and/or αPD-L1 (5 mg/kg) and/or aCTLA4 (100 ug/dose) for 2.5 weeks (n: sgPrkci/Prkcz MTOs Veh-treated=7, sgPrkciiPrkcz MTOs PEGPH20-treated=7, sgPrkci/Prkcz MTOs PEGPH20 and αPD-L1-treated=7, and sgPrkci/Prkcz MTOs PEGPH20 and aCTLA4-treated=6).
# [2] = tested on: MTO-sgPrkci/sgPrkcz tumors; assay: Subcutaneous sgPrkci/Prkcz MTO tumors: PEGPH20 combined with anti-PD-L1; type: in vivo, mouse
# Procedure: FIGS. 13B-13F illustrate Subcutaneous injection of sgPrkci/Prkcz MTOs in WT mice treated twice a week with PEGPH20 (0.0375 mg/kg) and αPD-L1 (5 mg/kg) for 4 weeks (n:Veh=14, PEGPH20-treated=15 and PEGPH20-treated with αPD-L1=15). Experimental design (B); tumor volume (C); tumor weight (D); IHC for HA, αSMA, CD8, FOXP3, S100a8, and CD19 of tumors (E) and quantification (F). Scale bars, 100 μm. Results are shown as mean±SEM *p<0.05, **p<0.01, ***p<0.001, ****p<0.0001.
# For colonoscopy-guided orthotopic injection in the colon submucosa using mouse tumor organoids (MTOs), a 10 μl organoid suspension of equivalent to 40-50 MTOs admixed with 10% Matrigel (Corning) was directly injected into the colonic submucosa of 7 weeks old C57BL/6 mice. 4 weeks after implantation, tumors were collected and analyzed histologically. Orthotopic tumor sizes were measured by caliper after mice were sacrificed. For xenografts using MTOs, a 100 μl cell suspension of equivalent to 0.5×10^6 cells of sgPrkci/Prkcz or sgC MTOs admixed with 30% Matrigel (Corning) was directly injected subcutaneously into the right flank of 7 weeks old C57BL/6 mice. Tumors were allowed to grow for 14 days, and mice were randomly divided to receive vehicle, n=20, or PEGPH20 (0.0375 mg/kg, 2 days each week) via retro-orbital injection, n=18. Tumors were measured twice a week. Mice were euthanized three weeks after treatment and tumors were analyzed histologically. For the combination therapy of anti-PD-L1 (Clone B7-H1, Bioxcell) antibody and PEGPH20, mice were injected with a dose of 5 mg/kg (body mass) of anti-PD-L1 antibody in combination with PEGPH20 (n=15) twice a week for 4 weeks until they were sacrificed.
# [3] = tested on: tumors from Prkci^fl/fl Prkcz^fl/fl Villin-cre (DKO) mice; assay: scRNAseq and IHC of DKO mouse intestinal tumors treated with PVHA or Galunisertib; type: in vivo; details: non-tumor area
molecule,measurement,setting,value
"PEGPH20: a PEGylated version of human recombinant PH20 hyaluronidase; clinical-grade pegylated hyaluronidase (Halozyme Therapeutics) (protein, UniProt P38567 36-490, looked up, PEGylated) Hyaluronidase PH-20: LNFRAPPVIPNVPFLWAWNAPSEFCLGKFDEPLDMSLFSFIGSPRINATGQGVTIFYVDRLGYYPYIDSITGVTVNGGIPQKISLQDHLDKAKKDITFYMPVDNLGMAVIDWEEWRPTWARNWKPKDVYKNRSIELVQQQNVQLSLTEATEKAKQEFEKAGKDFLVETIKLGKLLRPNHLWGYYLFPDCYNHHYKKPGYNGSCFNVEIKRNDDLSWLWNESTALYPSIYLNTQQSPVAATLYVRNRVREAIRVSKIPDAKSPLPVFAYTRIVFTDQVLKFLSQDELVYTFGETVALGASGIVIWGTLSIMRSMKSCLLLDNYMETILNPYIINVTLAAKMCSQVLCQEQGVCIRKNWNSSDYLHLNPDNFAIQLEKGGKFTVRGKPTLEDLEQFSEKFYCSCYSTLSCKEKADVKDTDAVDVCIADGVCIDAFLKPPMETEEPQIFYNASPSTLS",growth properties of MTO-sgC tumors,MTO-sgC tumors,did not affect
same,number of established liver tumors and volume of those tumors,[1],reducing
same,metastatic burden of MTO-sgPrkci/sgPrkcz,"[1]; PEGPH20 0.0375 mg/kg, αPD-L1 5 mg/kg, aCTLA4 100 ug/dose",markedly decreased
same,CD8+ T and B cells in the tumor,"[2]; IHC CD8, CD19",sufficient to bring
same,amount of immunosuppressive myeloid and Tregs,"[2]; IHC S100a8, FOXP3",reduce
same,HA content and intensity of αSMA+ stromal staining,"[2]; IHC, PEGPH20 0.0375 mg/kg, 4 weeks",reduced
same,Olfm4 (Stem cell marker) IHC,[3],increase
